In this test the target is NF-κB activator 1 (Act1) (UniProt Q8N7N6). The experiment in a line: co-immunoprecipitation (anti-Myc IP, Western blot, ImageJ densitometry). The conditions noted are these: IL-17RA-deficient MEFs reconstituted by retroviral infection; treated with IL-17 for 10 min; parent: 100.
Chain of NF-κB activator 1 (Act1) (Q8N7N6 whole entry): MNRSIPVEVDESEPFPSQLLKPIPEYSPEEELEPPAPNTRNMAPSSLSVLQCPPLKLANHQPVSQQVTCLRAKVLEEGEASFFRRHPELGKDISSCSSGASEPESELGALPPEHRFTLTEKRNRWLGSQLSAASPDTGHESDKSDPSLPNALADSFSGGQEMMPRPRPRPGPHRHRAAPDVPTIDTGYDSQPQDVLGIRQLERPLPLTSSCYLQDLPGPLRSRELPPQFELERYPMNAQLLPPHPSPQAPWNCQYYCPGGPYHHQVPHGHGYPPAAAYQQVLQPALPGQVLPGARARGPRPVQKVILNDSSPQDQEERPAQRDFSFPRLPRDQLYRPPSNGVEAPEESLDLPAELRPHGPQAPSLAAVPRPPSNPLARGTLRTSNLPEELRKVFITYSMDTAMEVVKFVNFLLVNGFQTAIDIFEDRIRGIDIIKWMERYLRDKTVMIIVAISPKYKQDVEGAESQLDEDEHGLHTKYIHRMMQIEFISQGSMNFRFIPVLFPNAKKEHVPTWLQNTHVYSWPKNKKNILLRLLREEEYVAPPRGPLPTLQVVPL

Chain of Myc-tagged mouse IL-17RA (Q60943 32-864, stated change not applied): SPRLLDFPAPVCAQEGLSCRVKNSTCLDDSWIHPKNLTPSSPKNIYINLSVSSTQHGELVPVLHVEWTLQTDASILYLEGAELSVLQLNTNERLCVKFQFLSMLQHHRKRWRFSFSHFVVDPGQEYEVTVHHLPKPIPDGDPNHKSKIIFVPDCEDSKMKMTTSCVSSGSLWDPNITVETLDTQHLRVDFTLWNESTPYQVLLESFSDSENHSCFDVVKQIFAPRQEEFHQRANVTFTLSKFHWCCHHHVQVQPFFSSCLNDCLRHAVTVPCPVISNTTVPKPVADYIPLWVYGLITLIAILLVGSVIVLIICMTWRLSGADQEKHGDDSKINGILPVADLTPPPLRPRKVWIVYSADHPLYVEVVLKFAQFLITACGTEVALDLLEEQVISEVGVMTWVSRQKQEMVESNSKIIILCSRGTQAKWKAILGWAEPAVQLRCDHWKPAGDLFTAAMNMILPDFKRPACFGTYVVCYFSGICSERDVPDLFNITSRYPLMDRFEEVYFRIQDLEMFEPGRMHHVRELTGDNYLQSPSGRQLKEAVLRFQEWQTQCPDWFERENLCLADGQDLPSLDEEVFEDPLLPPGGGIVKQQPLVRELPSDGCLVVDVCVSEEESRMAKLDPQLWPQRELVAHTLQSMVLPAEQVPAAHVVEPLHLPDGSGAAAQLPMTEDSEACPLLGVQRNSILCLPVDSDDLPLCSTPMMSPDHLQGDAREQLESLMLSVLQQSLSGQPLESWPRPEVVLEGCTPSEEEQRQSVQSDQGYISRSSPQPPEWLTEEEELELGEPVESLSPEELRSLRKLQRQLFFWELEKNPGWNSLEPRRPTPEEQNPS

With “Myc-tagged mouse IL-17RA (from UniProt Q60943) T483A; N488A; M489A”, the percent of parent came to 31.

The values above are taken from PMC4014126 (2014).
